Laboratory results as given in paper PMC12839305.

Target: RVFV glycoprotein Gn head domain (154–469 aa) (Rift Valley fever virus) (UniProt P21401)
Experiment: BLI; […]; 300 s association, 300 s dissociation; […], global 1:1 model; Octet RED96

## full-length LRP1 (low-density lipoprotein receptor-related protein 1), native, from porcine lung
  Kd: 9.2 nM
